Biological target: Tryparedoxin peroxidase I from Leishmania major (LmTXNPx) (Leishmania major)
Test: crystal structure; hanging drop vapor diffusion at 293 K; 12 mg/mL protein in 20 mM Tris-HCl pH 7.5 with 50 mM DTT (reduced); pentamer in the asymmetric unit, decamer from two pentamers of adjacent asymmetric units

stoichiometry N: 10
Substance: Tryparedoxin peroxidase I from Leishmania major (LmTXNPx) (enzyme)
